Measured values from article PMC10239695.

Legend:
[1] = substrate: T1, BSSαγ complex (UniProt O68395)
T1 sequence 1: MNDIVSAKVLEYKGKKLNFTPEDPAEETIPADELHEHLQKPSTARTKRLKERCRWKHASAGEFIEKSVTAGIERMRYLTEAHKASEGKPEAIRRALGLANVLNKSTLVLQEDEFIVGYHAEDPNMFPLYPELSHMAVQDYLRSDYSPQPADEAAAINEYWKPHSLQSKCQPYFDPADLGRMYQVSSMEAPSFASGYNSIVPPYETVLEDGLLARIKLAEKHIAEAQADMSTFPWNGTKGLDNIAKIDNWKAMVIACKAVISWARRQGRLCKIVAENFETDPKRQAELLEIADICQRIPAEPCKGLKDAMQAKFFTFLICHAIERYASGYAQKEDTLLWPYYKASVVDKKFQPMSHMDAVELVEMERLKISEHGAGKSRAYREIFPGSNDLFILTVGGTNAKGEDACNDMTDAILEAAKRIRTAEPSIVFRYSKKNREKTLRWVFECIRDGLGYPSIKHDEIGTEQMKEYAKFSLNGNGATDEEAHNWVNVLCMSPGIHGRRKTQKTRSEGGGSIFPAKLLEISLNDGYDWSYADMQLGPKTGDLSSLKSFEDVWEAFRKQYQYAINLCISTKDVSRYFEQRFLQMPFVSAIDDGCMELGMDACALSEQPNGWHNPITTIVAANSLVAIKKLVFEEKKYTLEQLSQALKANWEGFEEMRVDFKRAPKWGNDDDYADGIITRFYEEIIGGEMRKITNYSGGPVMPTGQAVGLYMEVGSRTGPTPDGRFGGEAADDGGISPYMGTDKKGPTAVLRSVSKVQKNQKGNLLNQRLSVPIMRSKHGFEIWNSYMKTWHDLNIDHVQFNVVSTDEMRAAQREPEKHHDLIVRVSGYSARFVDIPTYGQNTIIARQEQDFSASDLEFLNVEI
T1 sequence 2: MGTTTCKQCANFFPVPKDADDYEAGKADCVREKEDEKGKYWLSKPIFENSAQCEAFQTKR

Which AdoMet cleavage by as purified IbsAE with IBSSαγ added (dAdo by LCMS, 2 h endpoint, n = 3); 1.1 μM dAdo without IBSSαγ (IBSSαγ complex) does the source give for “4-isopropylbenzylsuccinate synthase activating enzyme (IbsAE)” here?
Its AdoMet cleavage by as purified IbsAE with IBSSαγ added (dAdo by LCMS, 2 h endpoint, n = 3); 1.1 μM dAdo without IBSSαγ is 47.6 μM dAdo.

And the AdoMet cleavage by reconstituted IbsAE with IBSSαγ added (dAdo by LCMS, 2 h endpoint, n = 3); 1.4 μM dAdo without IBSSαγ (IBSSαγ complex)?
The AdoMet cleavage by reconstituted IbsAE with IBSSαγ added (dAdo by LCMS, 2 h endpoint, n = 3); 1.4 μM dAdo without IBSSαγ was 46.7 μM dAdo.

Which AdoMet cleavage by as purified IbsAE with IBSSαγ and IBSSβ added (dAdo by LCMS, 2 h endpoint, n = 3); 47.6 μM dAdo without IBSSβ (IBSSαγ complex) does the source give for “4-isopropylbenzylsuccinate synthase beta subunit (IBSSβ), affinity tag removed (from UniProt A0A096ZP03 1-73) (natural protein)” here?
Its AdoMet cleavage by as purified IbsAE with IBSSαγ and IBSSβ added (dAdo by LCMS, 2 h endpoint, n = 3); 47.6 μM dAdo without IBSSβ is 7.2 μM dAdo.

What about the AdoMet cleavage by reconstituted IbsAE with IBSSαγ and IBSSβ added (dAdo by LCMS, 2 h endpoint, n = 3); 46.7 μM dAdo without IBSSβ (IBSSαγ complex) of the same molecule?
Its AdoMet cleavage by reconstituted IbsAE with IBSSαγ and IBSSβ added (dAdo by LCMS, 2 h endpoint, n = 3); 46.7 μM dAdo without IBSSβ is 5.4 μM dAdo.

B1: Benzylsuccinate synthase beta subunit (BSSβ), affinity tag removed (natural protein)
chain: MEGSNMETGQNLQNQPHTEVGTARPCRSCKWQTPDPTDPHRGQCTANRHAMGGVWKRWLRDVENTTCSRHEEGKLSFRDHV
With B1 as the molecule, how does the benzylsuccinate formed from fumarate and toluene by activated BSSαγ (40 μM) with BSSβ (40 μM) added (assay yield by QToF-LCMS, n = 9); 0.7% without BSSβ (% assay yield) [1] read?
Its benzylsuccinate formed from fumarate and toluene by activated BSSαγ (40 μM) with BSSβ (40 μM) added (assay yield by QToF-LCMS, n = 9); 0.7% without BSSβ (% assay yield) is 92.3.
